Test results from article PMC3904411.

Columns and labels:
[1] = target: PcrG (Pseudomonas aeruginosa strain 2192); test: SEC; HiLoad 16/60 Superdex 200 pg; 25 mM Tris–HCl pH 7.4, 150 mM NaCl; proteins 2–5 mg/ml; 1 ml/min; calibrated with markers
[2] = target: ∆PcrG_((13–72)) (Pseudomonas aeruginosa strain 2192); test: SPR; BIACORE 3000, NTA sensor chip; […]; 10 mM hepes pH 7.4, 150 mM NaCl, 50 μM EDTA; 25°C; 5 μl/min; Langmuir binding model
[3] = target: PcrG (Pseudomonas aeruginosa strain 2192); test: as above
[4] = target: PcrG (Pseudomonas aeruginosa strain 2192); test: cross-linking; EGS-sulfonate 0.5 mM, 1 mM and 2 mM, room temperature, 30 minutes; 10 mM hepes pH 7.4, 150 mM NaCl; 12% SDS PAGE
[5] = target: PcrG (Pseudomonas aeruginosa strain 2192); test: dynamic light scattering; Malvern Zetasizer nano ZS; proteins 2–5 mg/ml, filtered 0.22 micron; ΔPcrV(128–294) alone and with equimolar PcrG
[6] = target: ∆PcrG_((13–72)) (Pseudomonas aeruginosa strain 2192); test: native MS; called native mass spectrometry; protein diluted to 0.5-1.0 mg/ml in HPLC water, spotted on a MALDI target plate with CHCA matrix; Applied Biosystem 4700 Proteomics Analyser

Substance PcrG (natural protein) has a stoichiometry N [1] of 2.
Work on “PcrV (from UniProt G3XD49 1-294) (natural protein)” yielded a Ka [2] of 1.75e+06 M⁻¹, a Kd [2] of 570 nM and a koff [2] of 0.00978 s⁻¹. The kon [2] was 17100 M⁻¹ s⁻¹.
“ΔPcrV_((1–158)) (from UniProt G3XD49 1-158) (domain or fragment)” was tested, and the Kd [3] was 203 nM.
“ΔPcrV_((1–250)) (from UniProt G3XD49 1-250) (domain or fragment)” was tested, and the Kd [3] was 179 nM.
“ΔPcrV_((128–250)) (from UniProt G3XD49 128-250) (domain or fragment)” was tested, and the Kd [3] was 247 nM.
“ΔPcrV_((128–294)) (from UniProt G3XD49 128-294) (domain or fragment)” gave a stoichiometry N [4] of 1, a stoichiometry N [5] of 1 and a Ka [3] of 4.11e+07 M⁻¹. It also gave a Kd [3] of 24.3 nM, a koff [3] of 1.24e-05 s⁻¹ and a kon [3] of 511 M⁻¹ s⁻¹. It also gave a Ka [2] of 1.61e+06 M⁻¹, a Kd [2] of 621 nM and a koff [2] of 1.69e-05 s⁻¹. The kon [2] was 27.2 M⁻¹ s⁻¹.
“ΔPcrV_((159–294)) (from UniProt G3XD49 159-294) (domain or fragment)” gave a Kd [3] of 36.6 nM.
∆PcrG_((13–72)) (domain or fragment) showed a stoichiometry N [6] of 2.
